# Measurements from patent publication US20260217833A1 (APTEVO RESEARCH AND DEVELOPMENT, published 2026).
# What was measured:
# [1] = biological target: T1, human CD40 full-length (human, UniProt P25942 21-277); assay: flow cytometry, CHOK1SV/human CD40 cells
# T1 construct: Also used for CD40 of Daudi cells, of CD40-expressing HEK293 cells and of the BPS CD40/NFkB HEK293 reporter cells where the row says so; also called CD4001012; CHOK1SV/CD40
# [2] = biological target: T2, Human PD-L1 full-length (human, UniProt Q9NZQ7 19-290); assay: flow cytometry, CHOK1SV/human PD-L1 cells
# T2 construct: also called PDL01021; CHOK1SV/huPDL1
# T2 sequence (Q9NZQ7 19-290): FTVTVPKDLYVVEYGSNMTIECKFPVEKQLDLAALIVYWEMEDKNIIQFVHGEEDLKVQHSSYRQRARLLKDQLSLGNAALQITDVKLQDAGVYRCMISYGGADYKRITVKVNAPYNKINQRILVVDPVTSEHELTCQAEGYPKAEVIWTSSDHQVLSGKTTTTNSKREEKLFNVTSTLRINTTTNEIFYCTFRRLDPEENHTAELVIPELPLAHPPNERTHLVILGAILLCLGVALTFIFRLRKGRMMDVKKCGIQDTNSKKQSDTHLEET
Binder,EC50 (read off the curve) [1] [nM],binding result [2],binding result [1]
CD4001068 (bispecific antibody) PDL_5F9 x Fc-Knob: EVQLVESGGGLVKPGGSLRLSCAASGFTFSDYGMAWVRQAPGKGLEWVAFITSLAYIIYYADSVKGRFTISRDNAKNSLYLQMNSLRAEDTAVYYCARNYGSSPYYFDYWGQGTLVTVSSGGGGSGGGGSGGGGSGGGGSDIQMTQSPSSLSASVGDRVTITCRASQDINKFLSWYQQKPGKAPKLLIHYTSSLQPGVPSRFSGSGSGTDFTLTISSLQPEDFATYYCLQYDNLYTFGQGTKLEIKEPKSSDKTHTCPPCPAPPAAAPSVFLFPPKPKDTLMISRTPEVTCVVVDVSHEDPEVKFNWYVDGVEVHNAKTKPREEQYNSTYRVVSVLTVLHQDWLNGKEYKCAVSNKALPAPIEKTISKAKGQPREPQVYTLPPSRDELTKNQVSLWCLVKGFYPSDIAVEWESNGQPENNYKTTPPVLDSDGSFFLYSKLTVDKSRWQQGNVFSCSVMHEALHNHYTQKSLSLSPG CD40_5B9 x Fc-Hole: DVVMTQTPLSLPVSLGDQASISCRSSQSLVHYNGYTYLHWYLQKPGQSPKLLIYKVSNRFSGVPDRFSGSGSGTDFTLKISRVEAEDLGVYFCSQTTHVPLTFGAGTKLELRGGGGSGGGGSGGGGSGGGGSEVMLVESGGGLVKPGGSLKLSCAASGFTFSSYAMSWVRQTPERRLEWVASISSAGTYIYYPDSVKGRFTISRDNAKNILYLQMNSLRSEDTAMYYCARHGNGYDPLWYFDVWGAGTTVTVSSEPKSSDKTHTCPPCPAPPAAAPSVFLFPPKPKDTLMISRTPEVTCVVVDVSHEDPEVKFNWYVDGVEVHNAKTKPREEQYNSTYRVVSVLTVLHQDWLNGKEYKCAVSNKALPAPIEKTISKAKGQPREPQVYTLPPSRDELTKNQVSLSCAVKGFYPSDIAVEWESNGQPENNYKTTPPVLDSDGSFFLVSKLTVDKSRWQQGNVFSCSVMHEALHNRFTQKSLSLSPG,~5,binds,–
CD4001077 (bispecific antibody) PDL_5F9 x Fc-Knob: EVQLVESGGGLVKPGGSLRLSCAASGFTFSDYGMAWVRQAPGKGLEWVAFITSLAYIIYYADSVKGRFTISRDNAKNSLYLQMNSLRAEDTAVYYCARNYGSSPYYFDYWGQGTLVTVSSGGGGSGGGGSGGGGSGGGGSDIQMTQSPSSLSASVGDRVTITCRASQDINKFLSWYQQKPGKAPKLLIHYTSSLQPGVPSRFSGSGSGTDFTLTISSLQPEDFATYYCLQYDNLYTFGQGTKLEIKEPKSSDKTHTCPPCPAPPAAAPSVFLFPPKPKDTLMISRTPEVTCVVVDVSHEDPEVKFNWYVDGVEVHNAKTKPREEQYNSTYRVVSVLTVLHQDWLNGKEYKCAVSNKALPAPIEKTISKAKGQPREPQVYTLPPSRDELTKNQVSLWCLVKGFYPSDIAVEWESNGQPENNYKTTPPVLDSDGSFFLYSKLTVDKSRWQQGNVFSCSVMHEALHNHYTQKSLSLSPG PDL_5F9 x Fc-Hole x CD40_5B9: EVQLVESGGGLVKPGGSLRLSCAASGFTFSDYGMAWVRQAPGKGLEWVAFITSLAYIIYYADSVKGRFTISRDNAKNSLYLQMNSLRAEDTAVYYCARNYGSSPYYFDYWGQGTLVTVSSGGGGSGGGGSGGGGSGGGGSDIQMTQSPSSLSASVGDRVTITCRASQDINKFLSWYQQKPGKAPKLLIHYTSSLQPGVPSRFSGSGSGTDFTLTISSLQPEDFATYYCLQYDNLYTFGQGTKLEIKEPKSSDKTHTCPPCPAPPAAAPSVFLFPPKPKDTLMISRTPEVTCVVVDVSHEDPEVKFNWYVDGVEVHNAKTKPREEQYNSTYRVVSVLTVLHQDWLNGKEYKCAVSNKALPAPIEKTISKAKGQPREPQVYTLPPSRDELTKNQVSLSCAVKGFYPSDIAVEWESNGQPENNYKTTPPVLDSDGSFFLVSKLTVDKSRWQQGNVFSCSVMHEALHNRFTQKSLSLSPGGGGSPSDVVMTQTPLSLPVSLGDQASISCRSSQSLVHYNGYTYLHWYLQKPGQSPKLLIYKVSNRFSGVPDRFSGSGSGTDFTLKISRVEAEDLGVYFCSQTTHVPLTFGAGTKLELRGGGGSGGGGSGGGGSGGGGSEVMLVESGGGLVKPGGSLKLSCAASGFTFSSYAMSWVRQTPERRLEWVASISSAGTYIYYPDSVKGRFTISRDNAKNILYLQMNSLRSEDTAMYYCARHGNGYDPLWYFDVWGAGTTVTVSS,–,binds,binds
CD4001074 (bispecific antibody) CD40_5B9 x Fc-Knob: DVVMTQTPLSLPVSLGDQASISCRSSQSLVHYNGYTYLHWYLQKPGQSPKLLIYKVSNRFSGVPDRFSGSGSGTDFTLKISRVEAEDLGVYFCSQTTHVPLTFGAGTKLELRGGGGSGGGGSGGGGSGGGGSEVMLVESGGGLVKPGGSLKLSCAASGFTFSSYAMSWVRQTPERRLEWVASISSAGTYIYYPDSVKGRFTISRDNAKNILYLQMNSLRSEDTAMYYCARHGNGYDPLWYFDVWGAGTTVTVSSEPKSSDKTHTCPPCPAPPAAAPSVFLFPPKPKDTLMISRTPEVTCVVVDVSHEDPEVKFNWYVDGVEVHNAKTKPREEQYNSTYRVVSVLTVLHQDWLNGKEYKCAVSNKALPAPIEKTISKAKGQPREPQVYTLPPSRDELTKNQVSLWCLVKGFYPSDIAVEWESNGQPENNYKTTPPVLDSDGSFFLYSKLTVDKSRWQQGNVFSCSVMHEALHNHYTQKSLSLSPG CD40_5B9 x Fc-Hole x PDL_5F9: DVVMTQTPLSLPVSLGDQASISCRSSQSLVHYNGYTYLHWYLQKPGQSPKLLIYKVSNRFSGVPDRFSGSGSGTDFTLKISRVEAEDLGVYFCSQTTHVPLTFGAGTKLELRGGGGSGGGGSGGGGSGGGGSEVMLVESGGGLVKPGGSLKLSCAASGFTFSSYAMSWVRQTPERRLEWVASISSAGTYIYYPDSVKGRFTISRDNAKNILYLQMNSLRSEDTAMYYCARHGNGYDPLWYFDVWGAGTTVTVSSEPKSSDKTHTCPPCPAPPAAAPSVFLFPPKPKDTLMISRTPEVTCVVVDVSHEDPEVKFNWYVDGVEVHNAKTKPREEQYNSTYRVVSVLTVLHQDWLNGKEYKCAVSNKALPAPIEKTISKAKGQPREPQVYTLPPSRDELTKNQVSLSCAVKGFYPSDIAVEWESNGQPENNYKTTPPVLDSDGSFFLVSKLTVDKSRWQQGNVFSCSVMHEALHNRFTQKSLSLSPGGGGSPSEVQLVESGGGLVKPGGSLRLSCAASGFTFSDYGMAWVRQAPGKGLEWVAFITSLAYIIYYADSVKGRFTISRDNAKNSLYLQMNSLRAEDTAVYYCARNYGSSPYYFDYWGQGTLVTVSSGGGGSGGGGSGGGGSGGGGSDIQMTQSPSSLSASVGDRVTITCRASQDINKFLSWYQQKPGKAPKLLIHYTSSLQPGVPSRFSGSGSGTDFTLTISSLQPEDFATYYCLQYDNLYTFGQGTKLEIK,~2,binds,–

# More lines, now with the values ahead:
EC50 (read off the curve) [1] [nM],binding result [2],binding result [1],Binder
–,binds,binds,"CD4001065 (PDL_5F9 x hFc x CD40_5B9) (bispecific antibody, ADAPTIR format, anti-PD-L1 scFv on N-terminus, anti-CD40 scFv on C-terminus; also called CD4001065 (5B9)) EVQLVESGGGLVKPGGSLRLSCAASGFTFSDYGMAWVRQAPGKGLEWVAFITSLAYIIYYADSVKGRFTISRDNAKNSLYLQMNSLRAEDTAVYYCARNYGSSPYYFDYWGQGTLVTVSSGGGGSGGGGSGGGGSGGGGSDIQMTQSPSSLSASVGDRVTITCRASQDINKFLSWYQQKPGKAPKLLIHYTSSLQPGVPSRFSGSGSGTDFTLTISSLQPEDFATYYCLQYDNLYTFGQGTKLEIKEPKSSDKTHTCPPCPAPPAAAPSVFLFPPKPKDTLMISRTPEVTCVVVDVSHEDPEVKFNWYVDGVEVHNAKTKPREEQYNSTYRVVSVLTVLHQDWLNGKEYKCAVSNKALPAPIEKTISKAKGQPREPQVYTLPPSRDELTKNQVSLTCLVKGFYPSDIAVEWESNGQPENNYKTTPPVLDSDGSFFLYSKLTVDKSRWQQGNVFSCSVMHEALHNHYTQKSLSLSPGGGGSPSDVVMTQTPLSLPVSLGDQASISCRSSQSLVHYNGYTYLHWYLQKPGQSPKLLIYKVSNRFSGVPDRFSGSGSGTDFTLKISRVEAEDLGVYFCSQTTHVPLTFGAGTKLELRGGGGSGGGGSGGGGSGGGGSEVMLVESGGGLVKPGGSLKLSCAASGFTFSSYAMSWVRQTPERRLEWVASISSAGTYIYYPDSVKGRFTISRDNAKNILYLQMNSLRSEDTAMYYCARHGNGYDPLWYFDVWGAGTTVTVSS"
–,binds,binds,"CD4001048 (bispecific antibody, also called CD40_5B9 x hFc x PDL_5F9) scFv-Fc-scFv chain: DVVMTQTPLSLPVSLGDQASISCRSSQSLVHYNGYTYLHWYLQKPGQSPKLLIYKVSNRFSGVPDRFSGSGSGTDFTLKISRVEAEDLGVYFCSQTTHVPLTFGAGTKLELRGGGGSGGGGSGGGGSGGGGSEVMLVESGGGLVKPGGSLKLSCAASGFTFSSYAMSWVRQTPERRLEWVASISSAGTYIYYPDSVKGRFTISRDNAKNILYLQMNSLRSEDTAMYYCARHGNGYDPLWYFDVWGAGTTVTVSSEPKSSDKTHTCPPCPAPPAAAPSVFLFPPKPKDTLMISRTPEVTCVVVDVSHEDPEVKFNWYVDGVEVHNAKTKPREEQYNSTYRVVSVLTVLHQDWLNGKEYKCAVSNKALPAPIEKTISKAKGQPREPQVYTLPPSRDELTKNQVSLTCLVKGFYPSDIAVEWESNGQPENNYKTTPPVLDSDGSFFLYSKLTVDKSRWQQGNVFSCSVMHEALHNHYTQKSLSLSPGGGGSPSEVQLVESGGGLVKPGGSLRLSCAASGFTFSDYGMAWVRQAPGKGLEWVAFITSLAYIIYYADSVKGRFTISRDNAKNSLYLQMNSLRAEDTAVYYCARNYGSSPYYFDYWGQGTLVTVSSGGGGSGGGGSGGGGSGGGGSDIQMTQSPSSLSASVGDRVTITCRASQDINKFLSWYQQKPGKAPKLLIHYTSSLQPGVPSRFSGSGSGTDFTLTISSLQPEDFATYYCLQYDNLYTFGQGTKLEIK"
